Source: US20230357389A1 (Innovent, published 2023)
One block for each binder: values may come before it.

Tests used:
[1] = target: T1, human CD3 complex on T cells (human, UniProt P07766 23-207; P04234 22-171; P09693 23-182; P20963 22-164); assay: flow cytometry on Jurkat cells (human CD3 complex), PE anti-human Fc secondary antibody; the EC50 table prints no unit, nM is taken from the axis Concentration of antibody (nM)
T1 construct: whole, on cells; also called CD3 at the cellular level; Jurkat cells
T1 sequence (P07766 23-207, chain 1 of 4): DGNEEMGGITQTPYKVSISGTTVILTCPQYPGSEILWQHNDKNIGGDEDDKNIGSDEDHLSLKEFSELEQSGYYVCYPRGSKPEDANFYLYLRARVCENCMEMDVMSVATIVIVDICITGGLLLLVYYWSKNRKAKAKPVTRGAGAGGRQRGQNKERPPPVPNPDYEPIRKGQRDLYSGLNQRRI
T1 sequence (P04234 22-171, chain 2 of 4): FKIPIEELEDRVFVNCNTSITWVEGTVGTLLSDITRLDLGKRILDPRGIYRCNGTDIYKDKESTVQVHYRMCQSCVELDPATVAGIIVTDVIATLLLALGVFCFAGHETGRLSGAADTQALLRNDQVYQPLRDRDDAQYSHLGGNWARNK
T1 sequence (P09693 23-182, chain 3 of 4): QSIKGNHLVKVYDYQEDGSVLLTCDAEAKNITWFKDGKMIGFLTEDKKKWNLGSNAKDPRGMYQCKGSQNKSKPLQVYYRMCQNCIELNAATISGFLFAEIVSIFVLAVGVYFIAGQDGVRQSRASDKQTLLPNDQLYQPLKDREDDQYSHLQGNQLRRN
T1 sequence (P20963 22-164, chain 4 of 4): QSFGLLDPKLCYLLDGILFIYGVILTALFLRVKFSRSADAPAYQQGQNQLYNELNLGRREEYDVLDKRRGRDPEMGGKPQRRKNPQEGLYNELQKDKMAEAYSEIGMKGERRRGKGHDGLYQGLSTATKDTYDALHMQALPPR
Excerpt: Jurkat cells were immortalized human T lymphocytes, which expressed human CD3 complex. The cell line was used to detect the binding of the antibody of invention and the cell.

[2] = target: T2, human CLDN18.2 on the cell surface (human, UniProt P56856-2 1-261); assay: cell-based or functional assay
[3] = target: T2, human CLDN18.2 on the cell surface; assay: flow cytometry (FACS) titration on NUGC-4 gastric cancer cells
[4] = target: T2, human CLDN18.2 on the cell surface; assay: flow cytometry (FACS) titration on DAN-G-hCLDN18.2 pancreatic cancer cells
[5] = target: T2, human CLDN18.2 on the cell surface; assay: flow cytometry (FACS) titration on CHO-hCLDN18.2 cells, PE anti-human Fc secondary antibody; the EC50 table prints no unit, nM is taken from the axis Log[Conc.(nM)]
Experimental: (§1) Specifically, the cells to be tested (CHO-hCLDN18.2 and CHO-hCLDN18.1) obtained in Example 1 were counted and diluted to 1×10⁶ cells/ml, added to the U-shaped bottom 96-well plate at 100 μl/well, and then centrifuged at 500 g for 5 min before the cell culture medium was removed. […] The initial concentration of the antibody was 900 nM, and it was diluted three times serially, a total of 10 concentration points before leaving it on ice for 30 min, and removing the supernatant at 500 g for 5 min, and washing the cells with PBS once before adding goat anti-human Fc PE-labeled secondary antibody (Southern Biotech, J2815-5H87B) at 100 μl/well, and incubating in dark on ice for 30 min, removing the supernatant at 500 g for 5 min, and washing the cells with PBS once. 50 μl 1×PBS was used to resuspend cells and FACS was used for detection. GraphPad Prism software was used to analyze the experimental data and get FIG. 1 and FIG. 2.

[6] = target: T3, human CLDN18.1 on the cell surface (human, UniProt P56856 1-261); assay: flow cytometry (FACS) titration on CHO-hCLDN18.1 cells, PE anti-human Fc secondary antibody
T3 construct: whole, on cells; also called CHO-hCLDN18.1
Experimental: as §1

[7] = target: T4, Human Claudin 18.2 (GenScrip, P50251802) (human, UniProt P56856-2 1-261, limits assumed); assay: SPR (Biacore T200), CLDN18.2 amine-coupled to chip, antibody as analyte, 1:1 model
T4 construct: Bought protein; also called human CLDN18.2
Experimental: After coupling, 1 M ethanolamine was injected to seal the remaining activation sites. The binding and dissociation between the chip surface antigen and the antibody in the mobile phase were detected by Biocore (GE Healthcare, T200) according to the manufacturer's instructions to obtain the affinity and kinetic constants. The serially diluted antibody (0-100 nM) flowed through the chip surface in order from low concentration to high concentration, with binding time of 180 s and dissociation time of 600 s. Finally, 10 mM Glycine pH 1.5 (GE Healthcare, BR-1003-54) was used to regenerate the chip. The resulting data were analyzed using the Biocore T200 analysis software and the dynamic analysis was conducted using the 1:1 combination model.

- EC50 [1]: 3 nM
B2: anti-CD3 monoclonal antibody HzSP34.97 (antibody, human IgG1, lambda, L234A L235A, V domains shown)
VH: EVQLVESGGGLVQPGGSLKLSCAASGFTFNTYAMNWVRQASGKGLEWVGRIRSKAGGYATYYADSVKDRFTISRDDSKSTLYLQMNSLKTEDTAVYYCARHGNFGQSYVSWFAYWGQGTTVTVSS
VL: QAVVTQEPSLTVSPGGTVTLTCRSSTGAVTTSNYANWVQQKPGQAPRGLIGGTNKRAPGVPARFSGSLLGDKAALTLLGAQPEDEAEYYCALWYSNLWVFGQGTKLTVLG

- EC50 (read off the curve) [3]: ~3 nM
- EC50 (read off the curve) [4]: ~2 nM
- EC50 [5]: 3.31 nM
B6: control antibody zolbetuximab (antibody, human IgG1, kappa, V domains shown)
VH: QVQLQQPGAELVRPGASVKLSCKASGYTFTSYWINWVKQRPGQGLEWIGNIYPSDSYTNYNQKFKDKATLTVDKSSSTAYMQLSSPTSEDSAVYYCTRSWRGNSFDYWGQGTTLTVSS
VL: DIVMTQSPSSLTVTAGEKVTMSCKSSQSLLNSGNQKNYLTWYQQKPGQPPKLLIYWASTRESGVPDRFTGSGSGTDFTLTISSVQAEDLAVYYCQNDYSYPFTFGSGTKLEIKR
notes: also called Zmab; positive control antibody Zmab

- binding result [6]: no binding
- Kd [7]: 0.72 nM
- koff [7]: 0.000306 s⁻¹
- kon [7]: 425000 M⁻¹ s⁻¹
- EC50 (read off the curve) [3]: ~1 nM
- EC50 [5]: 5.51 nM
B7: anti-CLDN18.2 monoclonal antibody HB37A6 (antibody, human IgG1, kappa, V domains shown)
VH: EVQLLDSGGGLVQPGGSLRLSCAASGFTFSSYVMSWVRQAPGKGLNWVSTISHSGGSTYYADSVKGRFTISRDNSKNTLYLQMNSLRAEDTAVYYCAIDAPYYDILTGYRYWGQGTLVTVSS
VL: not shown
notes: also called whole human antibody HB37A6

Continued, binder first:

B1: anti-CD3 monoclonal antibody HzSP34.87 (antibody, human IgG1, lambda, L234A L235A, V domains shown)
VH: EVQLVESGGGLVQPGGSLKLSCAASGFTFNTYAMNWVRQASGKGLEWVGRIRSKYNNYATYYADSVKDRFTISRDDSKSTLYLQMNSLKTEDTAVYYCARHYNFGQSYVSWFAYWGQGTTVTVSS
VL: QAVVTQEPSLTVSPGGTVTLTCRSSTGAVTTSNYANWVQQKPGQAPRGLIGGTNKRAPGVPARFSGSLLGDKAALTLLGAQPEDEAEYYCALWYSNLWVFGQGTKLTVLG
- EC50 [1]: 3.42 nM

B3: bispecific antibody 030 (CLDN18.2 x CD3) (bispecific antibody, human IgG1, kappa, lambda, L234A L235A)
heavy 1: not shown
light 1: not shown
heavy 2: not shown
light 2: QAVVTQEPSLTVSPGGTVTLTCRSSTGAVTTSNYANWVQQKPGQAPRGLIGGTNKRAPGVPARFSGSLLGDKAALTLLGAQPEDEAEYYCALWYSNLWVFGQGTKLTVLGQPKAAPSVTLFPPSSEELQANKATLVCLISDFYPGAVTVAWKADSSPVKAGVETTTPSKQSNNKYAASSYLSLTPEQWKSHRSYSCQVTHEGSTVEKTVAPTECS
- EC50 of PBMC-mediated killing of gastric cancer cell NUGC-4 [2]: < 0.001 nM
- EC50 of PBMC-mediated killing of pancreatic cancer cell DAN-G-hCLDN18.2 [2]: < 0.1 pM

B4: bispecific antibody 033 (CLDN18.2 x CD3) (bispecific antibody, human IgG1, kappa, lambda, L234A L235A)
heavy 1: not shown
light 1: not shown
heavy 2: not shown
light 2: QAVVTQEPSLTVSPGGTVTLTCRSSTGAVTTSNYANWVQQKPGQAPRGLIGGTNKRAPGVPARFSGSLLGDKAALTLLGAQPEDEAEYYCALWYSNLWVFGQGTKLTVLGQPKAAPSVTLFPPSSEELQANKATLVCLISDFYPGAVTVAWKADSSPVKAGVETTTPSKQSNNKYAASSYLSLTPEQWKSHRSYSCQVTHEGSTVEKTVAPTECS
- killing activity on NUGC-4 and DAN-G-hCLDN18.2 relative to 030 and 032 [2]: ~1000 times lower than 030 and 032

B5: bispecific antibody 032 (CLDN18.2 x CD3) (bispecific antibody, human IgG1, kappa, lambda, L234A L235A)
heavy 1: not shown
light 1: not shown
heavy 2: not shown
light 2: QAVVTQEPSLTVSPGGTVTLTCRSSTGAVTTSNYANWVQQKPGQAPRGLIGGTNKRAPGVPARFSGSLLGDKAALTLLGAQPEDEAEYYCALWYSNLWVFGQGTKLTVLGQPKAAPSVTLFPPSSEELQANKATLVCLISDFYPGAVTVAWKADSSPVKAGVETTTPSKQSNNKYAASSYLSLTPEQWKSHRSYSCQVTHEGSTVEKTVAPTECS
- EC50 of PBMC-mediated killing of gastric cancer cell NUGC-4 [2]: < 0.001 nM
- EC50 of PBMC-mediated killing of pancreatic cancer cell DAN-G-hCLDN18.2 [2]: < 0.1 pM
